Patent US20180364250

Molecular target: ubiquitin-D77

B1: YUH1 (protein)
chain: MSGENRAVVPIESNPEVFTNFAHKLGLKNEWAYFDIYSLTEPELLAFLPRPVKAIVLLFPINEDRKSSTSQQITSSYDVIWFKQSVKNACGLYAILHSLSNNQSLLEPGSDLDNFLKSQSDTSSSKNRFDDVTTDQFVLNVIKENVQTFSTGQSEAPEATADTNLHYITYVEENGGIFELDGRNLSGPLYLGKSDPTATDLIEQELVRVRVASYMENANEEDVLNFAMLGLGPNWE
B1 was tested, and the “fluorescence intensity over time (real-time deubiquitinase assay with 500 nM ubiquitin-D77, 10 nM fluorescein-tagged ubiquitin, 10 nM tIVR)” value was “Activity of YUH1 released ubiquitin proteins from conjugation to aspartic acid (i.e., the D77 residue), and thus increased the concentration of free ubiquitin protein”.
